{
  "source": "paper doi:10.1101/663153",
  "about": "(bioRxiv, 2019)",
  "binders": {"B1": {"name": "β-Arrestin1-RLuc3 (natural protein, UniProt P49407 1-418, looked up)", "chain": "MGDKGTRVFKKASPNGKLTVYLGKRDFVDHIDLVDPVDGVVLVDPEYLKERRVYVTLTCAFRYGREDLDVLGLTFRKDLFVANVQSFPPAPEDKKPLTRLQERLIKKLGEHAYPFTFEIPPNLPCSVTLQPGPEDTGKACGVDYEVKAFCAENLEEKIHKRNSVRLVIRKVQYAPERPGPQPTAETTRQFLMSDKPLHLEASLDKEIYYHGEPISVNVHVTNNTNKTVKKIKISVRQYADICLFNTAQYKCPVAMEEADDTVAPSSTFCKVYTLTPFLANNREKRGLALDGKLKHEDTNLASSTLLREGANREILGIIVSYKVKVKLVVSRGGLLGDLASSDVAVELPFTLMHPKPKEEPPHREVPENETPVDTNLIELDTNDDDIVFEDFARQRLKGMKDDKEEEEDGTGSPQLNNR"}},
  "target": "T1, CysLTR2-GFP10-1D4 L129Q (human, UniProt Q9NS75 1-346, L129Q)",
  "T1 sequence (looked up)": "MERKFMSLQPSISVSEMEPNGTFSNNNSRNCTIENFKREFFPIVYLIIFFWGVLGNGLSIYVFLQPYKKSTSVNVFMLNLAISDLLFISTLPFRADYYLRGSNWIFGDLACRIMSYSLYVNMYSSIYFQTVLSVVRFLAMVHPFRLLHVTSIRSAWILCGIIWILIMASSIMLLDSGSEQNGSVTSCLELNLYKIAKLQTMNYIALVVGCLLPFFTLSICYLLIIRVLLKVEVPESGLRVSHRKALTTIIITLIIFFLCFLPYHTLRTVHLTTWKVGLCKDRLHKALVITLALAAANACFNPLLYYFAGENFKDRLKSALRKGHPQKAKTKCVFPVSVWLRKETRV",
  "assay": "FRET or BRET",
  "data": [
    {"binder": "B1", "values": [
      {"measurement": "ligand-independent net BRET^2 ratio", "value": "0.00151 ± 0.0004"}
    ]}
  ]
}
